Reference: patent US11065317B2, “Heat shock protein-binding peptide compositions and methods of use thereof” (Agenus Inc., priority 2018, dated 2021)

Each sequence was assayed against T1, human Hsc70 (Homo sapiens, UniProt P11142) (assay: Percent complexation of peptides with Hsc70 by size exclusion chromatography). Details: peptide:Hsc70 molar ratio 0.25:1; 60 minutes at 30° C.; SEC, 214 nm.
T1 construct: made in house; host or cells: E. coli
Assay type: binding
Procedure: In a separate experiment, further variants of the peptide NLLRLTG (SEQ ID NO: 70) were generated and the ability of these peptides to form a peptide-Hsc70 complex was analyzed. Peptides were again synthesized using standard Fmoc solid-phase chemical synthesis, as described above. Individual peptides were solubilized in pH adjusted water at a concentration of 250 μM, and spiked with polysorbate 20 to a final concentration of 0.1%. To form a peptide-Hsc70 complex, Hsc70 (1 mg/ml, 0.1% polysorbate) was mixed with peptide at peptide:Hsc70 molar ratios of, 0.25:1, 0.5:1, 1:1, 2:1, and 4:1, for 60 minutes at 30° C. Following incubation, samples were cooled for 5 minutes at room temperature and transferred to HPLC vials for analysis. To evaluate the quantity of the complex in the solution, 20 μl (10 μg) of the sample was loaded on a size exclusion chromatography column TSKgel SuperSW3000 (Tosoh Bioscience) at a flow rate of 0.2 ml/min with 1×PBS as a running buffer. The data was collected by measuring the absorbance at 214 nm.
The percent of Hsc70 bound to peptide was calculated by SEC. As shown in the SEC chromatogram depicted in FIG. 1, recombinant human heat shock cognate 71 kDa protein (Hsc70) appeared as monomer (M), dimer (D), trimer (T), and higher order high molecular weight (HMW) oligomeric species when subjected to SEC chromatography. Resolution and evaluation of the extent to which peptide-Hsc70 complex was formed with a given peptide or peptide mixture was complicated by the close elution of a complex of Hsc70 monomer with peptide (Msh). The peaks corresponding to monomer and complex overlap and were not fully resolved by conventional SEC media. In order to more accurately calculate the extent of complex formation, the following data analytical method was used. […] Peak area integrations of these protein species were well resolved from the complex and monomer. Further, the extent to which complex was formed appeared to be […] to the extent to which trimer and dimer were recruited to complex formation. Because of this observation, changes in trimer and dimer reflected the extent to which monomer was recruited to the formation of complex. Thus, the progression of changes in the level of trimer and dimer was used to calculate expected changes in the peak areas of overlapping complex and monomer species, and these calculated peak areas were used to calculate net formation of complex.
Terms used for various chromatographic fractions include: High Molecular Weight (HMW), Trimer and other mid-order oligomer (T), Dimer (D), Complex (C), Monomer shoulder (Msh), and Monomer (M) (see FIG. 1). Peak areas of the various fractions were extracted from SEC data and the percentage of peptide-Hsc70 complex formation was calculated using the following set of equations: % Complex=(AREAcomplex/AREATotal)×100 AREAcomplex=AREATotal−(AreaT+D+AreaMshx+AreaMx) AREATotal=AREAT+D,C,Msh,M+(AREAHDw-x−AREAHDW-0) AREAMshx=AREAMsh0×(AREA(T+D)x)/(AREA(T+D)0) AREAMx=AREAM0×(AREA(T+D)x)/(AREA(T+D)0)
AREATotal is the sum of total integrated peak areas from trimer/oligomer region through the monomer peak and excludes the initial HMW peak area but includes the excess increase of the HMW peak area that was observed when peptide was added. The HMW peak was excluded from the complexation calculation on the basis that it was aggregated protein that was not functional for complexation. This correction took into account AreaTotal factors in the minor increase in HMW area, adding it back to base total area used to calculate area of complex.
The foregoing method was applied to the SEC chromatogram for each complexation reaction by applying vertical lines to the chromatogram to produce HMW, T, C, D, and M segments (as shown in FIG. 1), calculating the area under the curve for of each of the indicated HMW, T, C, D, and M segments, and inputting the values into the equations described above.

T1 sequence (P11142 whole entry): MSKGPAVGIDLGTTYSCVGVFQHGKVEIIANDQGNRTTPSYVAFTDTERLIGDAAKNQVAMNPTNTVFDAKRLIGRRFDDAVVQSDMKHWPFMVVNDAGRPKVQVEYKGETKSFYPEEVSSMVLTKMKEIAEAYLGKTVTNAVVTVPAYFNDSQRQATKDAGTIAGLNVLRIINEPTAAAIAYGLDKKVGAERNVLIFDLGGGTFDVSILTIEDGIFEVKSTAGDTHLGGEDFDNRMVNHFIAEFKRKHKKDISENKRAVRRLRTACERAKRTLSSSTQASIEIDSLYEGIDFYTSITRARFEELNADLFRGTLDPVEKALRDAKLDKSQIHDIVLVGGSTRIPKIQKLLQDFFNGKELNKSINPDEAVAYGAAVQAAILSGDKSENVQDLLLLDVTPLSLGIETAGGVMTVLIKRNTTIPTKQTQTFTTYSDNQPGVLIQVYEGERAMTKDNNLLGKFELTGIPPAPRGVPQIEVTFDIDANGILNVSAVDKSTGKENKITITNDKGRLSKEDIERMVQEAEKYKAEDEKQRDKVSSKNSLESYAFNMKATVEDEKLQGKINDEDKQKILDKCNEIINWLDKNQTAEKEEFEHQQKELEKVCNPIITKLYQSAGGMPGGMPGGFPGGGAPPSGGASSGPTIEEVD

Row | Sequence | Percent complexation of peptides with Hsc70, 0.25:1 [%]
1 | FFRKFWLRLTW [PEP008] | 24.4
2 | FFRKNFLRLTF [PEP027] | 19.1
3 | FFRKNLLRLTG [PEP001, reference compound] | 23.4
4 | FFRKNLLRLTW [PEP155] | 22.5
5 | FFRKNLLRWTG [PEP004] | 15.4
6 | FFRKNRLLLTG [PEP002] | 19.2
7 | FFRKNRLWLTG [PEP005] | 16.0
8 | FFRKNWIRITW [PEP013] | 25.6
9 | FFRKNWLKLKW [PEP055] | 24.1
10 | FFRKNWLKLRW [PEP057] | 24.9
11 | FFRKNWLKLTW [PEP012] | 29.9
12 | FFRKNWLKLWK [PEP058] | 22.7
13 | FFRKNWLLLTW [PEP003] | 26.8
14 | FFRKNWLRLFW [PEP010] | 19.1
15 | FFRKNWLRLKW [PEP011] | 31.2
16 | FFRKNWLRLLW [PEP009] | 32.8
17 | FFRKNWLRLTW [PEP006] | 25.4
18 | FFRKQWLRLTW [PEP014] | 29.3
19 | FRNWLRLTW [PEP028] | 24.0

Same assay, conditions: peptide:Hsc70 molar ratio 0.5:1; 60 minutes at 30° C.; SEC, 214 nm

Row | Sequence | Percent complexation of peptides with Hsc70, 0.5:1 [%]
20 | FFRKFWLRLTW [PEP008] | 38.3
21 | FFRKNFLRLTF [PEP027] | 49.0
22 | FFRKNLLRLTG [PEP001, reference compound] | 44.7
23 | FFRKNLLRLTW [PEP155] | 48.1
24 | FFRKNLLRWTG [PEP004] | 29.0
25 | FFRKNRLLLTG [PEP002] | 32.0
26 | FFRKNRLWLTG [PEP005] | 32.7
27 | FFRKNWIRITW [PEP013] | 48.3
28 | FFRKNWLKLKW [PEP055] | 52.2
29 | FFRKNWLKLRW [PEP057] | 50.0
30 | FFRKNWLKLTW [PEP012] | 58.2
31 | FFRKNWLKLWK [PEP058] | 43.5
32 | FFRKNWLLLTW [PEP003] | 45.6
33 | FFRKNWLRLFW [PEP010] | 42.2
34 | FFRKNWLRLKW [PEP011] | 58.2
35 | FFRKNWLRLLW [PEP009] | 63.5
36 | FFRKNWLRLTW [PEP006] | 53.4
37 | FFRKQWLRLTW [PEP014] | 54.4
38 | FRNWLRLTW [PEP028] | 46.4

Same assay, conditions: peptide:Hsc70 molar ratio 1:1; 60 minutes at 30° C.; SEC, 214 nm

Row | Sequence | Percent complexation of peptides with Hsc70, 1:1 [%]
39 | FFRKFWLRLTW [PEP008] | 61.8
40 | FFRKNFLRLTF [PEP027] | 77.0
41 | FFRKNLLRLTG [PEP001, reference compound] | 68.1
42 | FFRKNLLRLTW [PEP155] | 75.6
43 | FFRKNLLRWTG [PEP004] | 46.8
44 | FFRKNRLLLTG [PEP002] | 48.7
45 | FFRKNRLWLTG [PEP005] | 54.8
46 | FFRKNWIRITW [PEP013] | 69.6
47 | FFRKNWLKLKW [PEP055] | 75.9
48 | FFRKNWLKLRW [PEP057] | 72.2
49 | FFRKNWLKLTW [PEP012] | 79.2
50 | FFRKNWLKLWK [PEP058] | 66.5
51 | FFRKNWLLLTW [PEP003] | 67.2
52 | FFRKNWLRLFW [PEP010] | 64.9
53 | FFRKNWLRLKW [PEP011] | 81.6
54 | FFRKNWLRLLW [PEP009] | 81.0
55 | FFRKNWLRLTW [PEP006] | 81.5
56 | FFRKQWLRLTW [PEP014] | 80.9
57 | FRNWLRLTW [PEP028] | 75.6

Same assay, conditions: peptide:Hsc70 molar ratio 2:1; 60 minutes at 30° C.; SEC, 214 nm

Row | Sequence | Percent complexation of peptides with Hsc70, 2:1 [%]
58 | FFRKFWLRLTW [PEP008] | 79.1
59 | FFRKNFLRLTF [PEP027] | 85.6
60 | FFRKNLLRLTG [PEP001, reference compound] | 82.5
61 | FFRKNLLRLTW [PEP155] | 82.9
62 | FFRKNLLRWTG [PEP004] | 62.5
63 | FFRKNRLLLTG [PEP002] | 64.8
64 | FFRKNRLWLTG [PEP005] | 67.6
65 | FFRKNWIRITW [PEP013] | 81.9
66 | FFRKNWLKLKW [PEP055] | 83.7
67 | FFRKNWLKLRW [PEP057] | 82.8
68 | FFRKNWLKLTW [PEP012] | 86.2
69 | FFRKNWLKLWK [PEP058] | 78.8
70 | FFRKNWLLLTW [PEP003] | 81.3
71 | FFRKNWLRLFW [PEP010] | 79.3
72 | FFRKNWLRLKW [PEP011] | 87.8
73 | FFRKNWLRLLW [PEP009] | 85.3
74 | FFRKNWLRLTW [PEP006] | 88.3
75 | FFRKQWLRLTW [PEP014] | 88.1
76 | FRNWLRLTW [PEP028] | 84.1

Same assay, conditions: peptide:Hsc70 molar ratio 4:1; 60 minutes at 30° C.; SEC, 214 nm

Row | Sequence | Percent complexation of peptides with Hsc70, 4:1 [%]
77 | FFRKFWLRLTW [PEP008] | 81.6
78 | FFRKNFLRLTF [PEP027] | 90.0
79 | FFRKNLLRLTG [PEP001, reference compound] | 90.1
80 | FFRKNLLRLTW [PEP155] | 86.6
81 | FFRKNLLRWTG [PEP004] | 75.3
82 | FFRKNRLLLTG [PEP002] | 78.8
83 | FFRKNRLWLTG [PEP005] | 77.6
84 | FFRKNWIRITW [PEP013] | 87.7
85 | FFRKNWLKLKW [PEP055] | 86.3
86 | FFRKNWLKLRW [PEP057] | 88.3
87 | FFRKNWLKLTW [PEP012] | 89.5
88 | FFRKNWLKLWK [PEP058] | 83.9
89 | FFRKNWLLLTW [PEP003] | 87.6
90 | FFRKNWLRLFW [PEP010] | 86.5
91 | FFRKNWLRLKW [PEP011] | 90.4
92 | FFRKNWLRLLW [PEP009] | 89.0
93 | FFRKNWLRLTW [PEP006] | 91.8
94 | FFRKQWLRLTW [PEP014] | 90.3
95 | FRNWLRLTW [PEP028] | 87.5

What follows are sequences tested against T2, Recombinant human Hsc70 (rhHsc70) (Homo sapiens, UniProt P11142) (assay: Complexation of rhHsc70 with PEP006 or a PEP006-containing polypeptide, size exclusion HPLC chromatogram). Details: PEP006:rhHsc70 molar ratios 0.25:1 to 3:1; 37° C. 60 minutes; FIG. 2.
T2 construct: made in house; host or cells: E. coli
T2 sequence (P11142 whole entry): as above
Assay type: binding
Procedure: Briefly, PEP006 peptide was reconstituted in water for injection (WFI) to a concentration of 645 μM. Recombinant human Hsc70 (rhHsc70) was diluted at a concentration of 1.66 mg/mL. Both solutions were pre-warmed in a 37° C. incubator for 10 minutes, and were combined and incubated at 37° C. for 60 minutes. The final concentration of rhHsc70 was 1 mg/mL (about 14.1 μM), and the molar ratio of PEP006 to rhHsc70 was 0.25:1, 0.5:1, 1:1, 1.5:1, 2:1, 2.5:1, and 3:1. A negative control containing only rhHsc70 at 1 mg/mL was also prepared.
A quantity of 10 μg of each sample was injected neat in triplicate for resolution by size exclusion HPLC (Alliance HPLC, Waters Model #2695 Separations Module; Dual Wavelength UV Detector, Waters Model 2487) using a chromatography column TSKgel SuperSW3000 (Tosoh Bioscience, Catalog #18675). […] UV absorbance of PEP006 peptide and rhHsc70 protein was measured at the wavelengths of 214 nm and 280 nm. The absorbance data was processed by Waters Empower (V2) software. […]
FIG. 3B is a graph showing percent complexation of a polypeptide comprising PEP006 with HSC70 over a range of polypeptide:Hsc70 molar ratios from 0.125:1 to 4:1, as calculated from size exclusion chromatography traces similar to those in FIG. 3A, using the methods described Example 6.1.1. […]

Row | Sequence | column retention time of complexation products when rhHsc70 bound
96 | FFRKNWLRLTW [PEP006] | column retention time became shorter

Same assay, conditions: polypeptide:Hsc70 molar ratios 0.125:1 to 4:1; FIG. 3A

Row | Sequence | column retention time of complexation products when rhHsc70 bound
97 | LGVVRPRALHRELDLVDDSPTPGSPGSFFRKNWLRLTW [polypeptide comprising PEP006] | column retention time became shorter
